Results as given in article PMC5098423 (DNA repair, 2015).

Molecular target: T1, Q324H MUTYH (human, UniProt Q9UIF7-3 1-535, Q324H)
T1 sequence (looked up): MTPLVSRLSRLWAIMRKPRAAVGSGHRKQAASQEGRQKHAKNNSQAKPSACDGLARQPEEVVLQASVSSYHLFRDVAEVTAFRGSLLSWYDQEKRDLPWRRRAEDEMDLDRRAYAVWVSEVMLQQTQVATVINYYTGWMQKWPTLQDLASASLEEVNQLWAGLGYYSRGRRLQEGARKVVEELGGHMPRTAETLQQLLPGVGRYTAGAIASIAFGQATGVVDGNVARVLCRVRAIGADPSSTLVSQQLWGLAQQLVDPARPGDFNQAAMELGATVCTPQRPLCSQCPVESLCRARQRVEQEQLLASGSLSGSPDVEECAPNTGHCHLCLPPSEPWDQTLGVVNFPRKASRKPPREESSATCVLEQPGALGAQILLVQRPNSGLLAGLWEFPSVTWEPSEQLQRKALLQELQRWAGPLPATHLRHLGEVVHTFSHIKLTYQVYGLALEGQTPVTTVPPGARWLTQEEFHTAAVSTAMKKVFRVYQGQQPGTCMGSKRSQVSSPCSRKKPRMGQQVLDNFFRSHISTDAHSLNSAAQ
Assay: pull-down

percent decrease of the interaction relative to WT MUTYH: ~20%
B1: Flag-tagged Hus1 (natural protein, UniProt O60921 1-280, looked up)
chain: MKFRAKIVDGACLNHFTRISNMIAKLAKTCTLRISPDKLNFILCDKLANGGVSMWCELEQENFFNEFQMEGVSAENNEIYLELTSENLSRALKTAQNARALKIKLTNKHFPCLTVSVELLSMSSSSRIVTHDIPIKVIPRKLWKDLQEPVVPDPDVSIYLPVLKTMKSVVEKMKNISNHLVIEANLDGELNLKIETELVCVTTHFKDLGNPPLASESTHEDRNVEHMAEVHIDIRKLLQFLAGQQVNPTKALCNIVNNKMVHFDLLHEDVSLQYFIPALS
